# Test results as given in publication PMC7067740, “NDRG2 Protects the Brain from Excitotoxicity by Facilitating Interstitial Glutamate Uptake” (Translational Stroke Research, 2019).
# Target: endogenous Na+/K+-ATPase β1 (mouse (endogenous in cultured mouse …, UniProt P14094 1-304))
# Assay: cell-based or functional assay
binder,measurement,value
"endogenous NDRG2 (N-myc downstream regulated gene 2) (natural protein, UniProt Q9QYG0 1-371, looked up) MAELQEVQITEEKPLLPGQTPETAKEAELAARILLDQGQTHSVETPYGSVTFTVYGTPKPKRPAIFTYHDVGLNYKSCFQPLFRFGDMQEIIQNFVRVHVDAPGMEEGAPVFPLGYQYPSLDQLADMIPCILQYLNFSTIIGVGVGAGAYILSRYALNHPDTVEGLVLINIDPNAKGWMDWAAHKLTGLTSSIPDMILGHLFSQEELSGNSELIQKYRGIIQHAPNLENIELYWNSYNNRRDLNFERGGETTLKCPVMLVVGDQAPHEDAVVECNSKLDPTQTSFLKMADSGGQPQLTQPGKLTEAFKYFLQGMGYMASSCMTRLSRSRTASLTSAASIDGSRSRSRTLSQSSESGTLPSGPPGHTMEVSC","half-life of endogenous Na+/K+-ATPase β1 in astrocytes after TAT-Ctrl treatment, with 100 μM emetine, immunoblot",1.83 h
same,"half-life of endogenous Na+/K+-ATPase β1 in astrocytes after TAT-β1(244–263) treatment, with 100 μM emetine, immunoblot",1.08 h
